Series [1] has as its target T1, BmLARK (Bombyx mori, UniProt Q5I7M6 1-343). As to the kind of experiment: EMSA; 50 mM K+; 10 mM Tris pH 7.5, 50 mM KCl, 1 mM DTT, room temperature, 20 min; 2 uM probe, 2 ug BmLARK or 1 ug BG4 in 20 ul; 4% PAGE on ice. The conditions noted are these: protein: recombinant; tags: GST (pGEX-6P-1); label: 5' 6-FAM. For orientation: A gel shift assay detects complexes by their altered migration in electrophoresis.

Series [2] deals with T1, BmLARK. Description: EMSA; 50 mM K+; reduced by unlabelled same-sequence competitor; 10 mM Tris pH 7.5, 50 mM KCl, 1 mM DTT, room temperature, 20 min; 2 uM probe, 2 ug BmLARK or 1 ug BG4 in 20 ul; 4% PAGE on ice. Particulars: protein: recombinant; tags: GST (pGEX-6P-1); label: 5' 6-FAM; G-quadruplex.

T1 sequence (Q5I7M6 entry or part of it): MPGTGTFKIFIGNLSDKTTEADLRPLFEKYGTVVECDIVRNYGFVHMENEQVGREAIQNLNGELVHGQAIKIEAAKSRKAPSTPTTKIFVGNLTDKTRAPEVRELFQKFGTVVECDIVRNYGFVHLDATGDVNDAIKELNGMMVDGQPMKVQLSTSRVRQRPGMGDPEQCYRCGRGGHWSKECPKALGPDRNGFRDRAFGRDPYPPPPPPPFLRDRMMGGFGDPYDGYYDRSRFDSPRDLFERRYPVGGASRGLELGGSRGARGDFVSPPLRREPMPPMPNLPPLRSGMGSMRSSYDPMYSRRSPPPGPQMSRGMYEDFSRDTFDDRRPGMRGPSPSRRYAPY

B1: FAM-Mut BmACBP G4 (ssDNA)
DNA: GTCGTGAAGGTGTTGATGGAGTGTAGGTT
For B1, in the series with BmLARK [1], the binding result was “no binding”.

B2: FAM-BmACBP G4 (folded with K+) (structured_DNA)
DNA: GTCGGGAAGGGGTTGGGGGGGGGTAGGTT
As to B2, the binding result with BmLARK [2] is “binds”.

The record behind these values is PMC9262599, “DNA G-quadruplex structure participates in regulation of lipid metabolism through acyl-CoA binding protein”.
